As usually defined, the Kd is the free concentration of one partner at which half of the binding sites on the other are occupied at equilibrium, for simple one-to-one binding.

Consider two substances from publication PMC3482342.

The target of test [1] is MukE (Escherichia coli) (UniProt P22524). To be noted: cited from earlier work.
Test [2] addresses MukE-LLFR (MukE-L38S/L41A/F185S/R186E) (E. coli) (UniProt P22524). In words: AUC.

Chain of MukE (P22524 whole entry): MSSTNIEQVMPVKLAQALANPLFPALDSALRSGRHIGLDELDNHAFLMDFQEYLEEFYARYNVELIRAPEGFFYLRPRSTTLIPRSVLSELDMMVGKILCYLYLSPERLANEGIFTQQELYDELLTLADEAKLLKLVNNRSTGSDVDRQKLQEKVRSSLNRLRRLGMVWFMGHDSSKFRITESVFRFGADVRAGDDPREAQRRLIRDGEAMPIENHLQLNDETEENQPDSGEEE

On to MukE (from UniProt P22524), for which, in test [1], the Kd was 18 µM. For the substance “MukE-LLFR (MukE-L38S/L41A/F185S/R186E) (from UniProt P22524 10-234) (natural protein)”, the Kd in test [2] is 450 µM.
